The labels stand for the following.
B1: Internalin C (Listeria monocytogenes serotype 1/2a), P71451 (parent)
chain: MLKKNNWLQNAVIAMLVLIVGLCINMGSGTKVQAESIQRPTPINQVFPDPGLANAVKQNLGKQSVTDLVSQKELSGVQNFNGDNSNIQSLAGMQFFTNLKELHLSHNQISDLSPLKDLTKLEELSVNRNRLKNLNGIPSACLSRLFLDNNELRDTDSLIHLKNLEILSIRNNKLKSIVMLGFLSKLEVLDLHGNEITNTGGLTRLKKVNWIDLTGQKCVNEPVKYQPELYITNTVKDPDGRWISPYYISNGGSYVDGCVLWELPVYTDEVSYKFSEYINVGETEAIFDGTVTQPIKN
B2: Dynamin-binding protein (Homo sapiens), Q6XZF7-1 (parent)
chain: MEAGSVVRAIFDFCPSVSEELPLFVGDIIEVLAVVDEFWLLGKKEDVTGQFPSSFVEIVTIPSLKEGERLFVCICEFTSQELDNLPLHRGDLVILDGIPTAGWLQGRSCWGARGFFPSSCVRELCLSSQSRQWHSQSALFQIPEYSMGQARALMGLSAQLDEELDFREGDVITIIGVPEPGWFEGELEGRRGIFPEGFVELLGPLRTVDESVSSGNQDDCIVNGEVDTPVGEEEIGPDEDEEEPGTYGVALYRFQALEPNELDFEVGDKIRILATLEDGWLEGSLKGRTGIFPYRFVKLCPDTRVEETMALPQEGSLARIPETSLDCLENTLGVEEQRHETSDHEAEEPDCIISEAPTSPLGHLTSEYDTDRNSYQDEDTAGGPPRSPGVEWEMPLATDSPTSDPTEVVNGISSQPQVPFHPNLQKSQYYSTVGGSHPHSEQYPDLLPLEARTRDYASLPPKRMYSQLKTLQKPVLPLYRGSSVSASRVVKPRQSSPQLHNLASYTKKHHTSSVYSISERLEMKPGPQAQGLVMEAATHSQGDGSTDLDSKLTQQLIEFEKSLAGPGTEPDKILRHFSIMDFNSEKDIVRGSSKLITEQELPERRKALRPPPPRPCTPVSTSPHLLVDQNLKPAPPLVVRPSRPAPLPPSAQQRTNAVSPKLLSRHRPTCETLEKEGPGHMGRSLDQTSPCPLVLVRIEEMERDLDMYSRAQEELNLMLEEKQDESSRAETLEDLKFCESNIESLNMELQQLREMTLLSSQSSSLVAPSGSVSAENPEQRMLEKRAKVIEELLQTERDYIRDLEMCIERIMVPMQQAQVPNIDFEGLFGNMQMVIKVSKQLLAALEISDAVGPVFLGHRDELEGTYKIYCQNHDEAIALLEIYEKDEKIQKHLQDSLADLKSLYNEWGCTNYINLGSFLIKPVQRVMRYPLLLMELLNSTPESHPDKVPLTNAVLAVKEINVNINEYKRRKDLVLKYRKGDEDSLMEKISKLNIHSIIKKSNRVSSHLKHLTGFAPQIKDEVFEETEKNFRMQERLIKSFIRDLSLYLQHIRESACVKVVAAVSMWDVCMERGHRDLEQFERVHRYISDQLFTNFKERTERLVISPLNQLLSMFTGPHKLVQKRFDKLLDFYNCTERAEKLKDKKTLEELQSARNNYEALNAQLLDELPKFHQYAQGLFTNCVHGYAEAHCDFVHQALEQLKPLLSLLKVAGREGNLIAIFHEEHSRVLQQLQVFTFFPESLPATKKPFERKTIDRQSARKPLLGLPSYMLQSEELRASLLARYPPEKLFQAERNFNAAQDLDVSLLEGDLVGVIKKKDPMGSQNRWLIDNGVTKGFVYSSFLKPYNPRRSHSDASVGSHSSTESEHGSSSPRFPRQNSGSTLTFNPSSMAVSFTSGSCQKQPQDASPPPKECDQGTLSASLNPSNSESSPSRCPSDPDSTSQPRSGDSADVARDVKQPTATPRSYRNFRHPEIVGYSVPGRNGQSQDLVKGCARTAQAPEDRSTEPDGSEAEGNQVYFAVYTFKARNPNELSVSANQKLKILEFKDVTGNTEWWLAEVNGKKGYVPSNYIRKTEYT

One assay covers variants of B1. To be noted: with DNMBP.
In the case of F146A, the “effect of a mutation on the interaction” value is reported as “decreasing interaction strength”.

Another assay covers variants of B2. To be noted: with inlc_lismg inlC.
On to N1569R, for which the “effect of a mutation on the interaction” value is “decreasing interaction strength”. On the same count and under the same terms, to V1521R belongs “decreasing interaction strength”.

Source of the values: IntAct's records for PubMed 24332715.
